In US20220267458A1:
pKd: −log10 of the molar value.

Tests used:
[1] = target: human GITR-His (human) (UniProt Q9Y5U5); test: ForteBio BLI, antibody on AHQ tip, human GITR-His 100 nM in solution, 1:1 model
[2] = target: human GITR-His (human) (UniProt Q9Y5U5); test: ForteBio BLI, antibody on AHQ tip, human GITR-His 100 nM in solution
[3] = target: GITR protein overexpressed on Hela cells (Hela-GITR-NF-κB-Luc-Rep); test: cell-based or functional assay
[4] = target: human GITR overexpressed on CHO cells (CHO-GITR) (human) (UniProt Q9Y5U5); test: flow cytometry on CHO-GITR cells, PE anti-human Fc detection, MFI; direct binding titration, the table row is labelled IC50, nM is taken from the concentration axis
[5] = target: human GITR-His (human) (UniProt Q9Y5U5); test: ForteBio BLI, antibody on AHQ tip, human GITR-His 100 nM in solution; remark: listed apart in the source

Chain of human GITR-His (human) (Q9Y5U5 other isoform, or with tags, fused parts or gaps): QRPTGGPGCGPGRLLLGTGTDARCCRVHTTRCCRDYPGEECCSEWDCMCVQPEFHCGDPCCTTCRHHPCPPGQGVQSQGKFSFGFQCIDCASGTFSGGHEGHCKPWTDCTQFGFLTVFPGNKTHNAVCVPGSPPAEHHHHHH
Chain of human GITR overexpressed on CHO cells (CHO-GITR) (human) (Q9Y5U5 26-241): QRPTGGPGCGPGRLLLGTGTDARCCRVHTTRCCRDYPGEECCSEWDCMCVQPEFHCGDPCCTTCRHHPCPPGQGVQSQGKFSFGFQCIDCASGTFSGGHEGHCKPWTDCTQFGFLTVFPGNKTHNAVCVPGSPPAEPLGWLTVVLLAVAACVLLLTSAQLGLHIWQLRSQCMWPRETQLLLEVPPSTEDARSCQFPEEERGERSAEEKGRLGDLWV

pKd [1]: 7.58
koff [1]: 0.00484 s⁻¹
kon [1]: 185000 M⁻¹ s⁻¹
pKd [2]: 8.07
koff [2]: 0.00292 s⁻¹
kon [2]: 342000 M⁻¹ s⁻¹
EC50 for the activation (NF-κB luciferase reporter) [3]: 2.1 nM
EC50 for binding [4]: 0.242 nM
pKd [5]: 8.02
koff [5]: 0.00206 s⁻¹
kon [5]: 214000 M⁻¹ s⁻¹
Substance: TRX518 (antibody)
